# Measurements taken from paper PMC3443289.
# Molecular target: HIV-1_(JR-FL) Env(−)ΔCT glycoprotein (uncleaved, cytoplasmic tail-truncated envelope glycoprotein precursor) (HIV-1 (isolate JR-FL))
# Assay: cryo-EM structure
substance,measurement,value
"HIV-1_(JR-FL) Env(−)ΔCT glycoprotein (uncleaved, cytoplasmic tail-truncated envelope glycoprotein precursor) (natural protein)",stoichiometry N,3
